Results reported in US20120225437A1 (UNIVERSITY OF LEICESTER, published 2012).

Assays:
[1] = target: T1, Rat MBL-A (mannan-binding lectin A) (rat, UniProt P19999 18-238); test: SPR, MBL immobilised, CUB2 at 20, 10, 5 and 2.5 µM, 1:1 model
T1 construct: mature; It was immobilised on the SPR chip by amine coupling
Description: (§1) Data were fitted to a model in which there is a single Ca²⁺ site.
(§2) MBL (0.025 mg/ml) was immobilized onto the surface of a GLM sensor chip (˜10,000 response units) at pH 4.5, using amine-coupling chemistry. […] For inhibition assays, MBL was immobilized on to a CM-5 sensor chip (14,000 response units) and binding was measured on a Biacore® 2000 (GE Healthcare) in 20 mM Tris/HCl pH 7.4, containing 140 mM NaCl, 5 mM Ca²⁺, and 0.005% SP-20. […] Changes in response units caused by differences in sample composition were subtracted from all data. To account for changes in ionic strength of the buffer due to the inhibitor, binding was measured in the presence of equivalent concentrations of NaCl.

[2] = target: T1, Rat MBL-A (mannan-binding lectin A); test: SPR, MBL immobilised, CUB2 injected, 5 mM Ca2+
Description: as §1, §2

koff [1]: 0.0035 s⁻¹ | kon [1]: 131 M⁻¹ s⁻¹ | Kd [2]: 27 µM
B1: CUB2 domain of rat MASP-1/-3 (residues E165-A277 of the mature polypeptide, isoform 1) (other)
chain: CSGNLFTQRTGTITSPDYPNPYPKSSECSYTIDLEEGFMVTLQFEDIFDIEDHPEVPCPYDYIKIKAGSKVWGPFCGEKSPEPISTQSHSIQILFRSDNSGENRGWRLSYRA
notes: also called MASP-1 CUB2; rat MASP-1 CUB2
